Biological target: human FcRn (human) (UniProt P55899)
Assay: SPR (Biacore), pH 7.1; antibody captured on biot-IZ-hCD40L, soluble receptor as analyte

- Kd: > 5 µM
Substance: 5c8-IgG1 (antibody)
